Experimental data reported in patent US12268749B2, “Cell-penetrating peptides” (Oxford University Innovation Limited, priority 2018, dated 2025).

Columns and labels:
[1] = toxicological assessment of peptide-PMO in C57BL/6 mice (urinary KIM-1, NGAL; serum BUN); format: in vivo, mouse; settings: 7 days after single dose of 30 mg/kg, FIG. 7
Method: Female C57BL/6 mice aged 8-10 weeks were administered a single 30 mg/kg dose of peptide-PMO in 0.9% saline by bolus intravenous tail vein injection. Urine was non-invasively collected under chilled conditions at Day 2 and Day 7 post-administration following 20 hours housing in metabolic cages (Tecniplast, UK). Serum was collected from jugular vein at Day 7 at necropsy, as was tibialis anterior, diaphragm and heart tissue.
The same procedure was followed at different single dosage amounts ranging from 2.5 mg/kg up to 50 mg/kg of peptide-PMO in 0.9% saline by intravenous tail vein injection.
Urinary levels of KIM-1 (Kidney injury molecule-1) and NGAL (Neutrophil Gelatinase-Associated Lipocalin) were quantified by ELISA (KIM-1 R&D cat #MKM100, NGAL R&D cat #MLCN20) following appropriate dilution of urine to fit standard curves. Values were normalised to urinary creatinine levels that were quantified at MRC Harwell Institute, Mary Lyon Centre, Oxfordshire, UK. Serum blood urea nitrogen levels were quantified at MRC Harwell Institute, Mary Lyon Centre, Oxfordshire, UK.
All levels were quanitifed on an AU680 Clinical Chemistry Analyser, Beckman Coulter.

exon 51 = settings: in vivo; cited from earlier work

Row | Substance | Serum blood urea nitrogen levels [1] | levels of dystrophin restoration (exon 51)
1 | Ac-RXRRBRR-FQILY-RBRXR-B [Pip9b2] | elevated | –
2 | eteplirsen | – | approximately 1 % of normal dystrophin levels
